Assay [1] deals with Human SOD1 in sporadic ALS (sALS) spinal cord homogenate (human) (UniProt P00441). The assay can be described thus: immunoprecipitation with antibody-linked magnetic beads; immunoblot of the flow-through of sALS patient 4 spinal cord homogenate. A general note: A western blot detects proteins with antibodies after separation by electrophoresis.
Assay [2] shares this target. The assay can be described thus: cell-based or functional assay.

Sequence of UniProt P00441 (P00441 2-154 limits assumed): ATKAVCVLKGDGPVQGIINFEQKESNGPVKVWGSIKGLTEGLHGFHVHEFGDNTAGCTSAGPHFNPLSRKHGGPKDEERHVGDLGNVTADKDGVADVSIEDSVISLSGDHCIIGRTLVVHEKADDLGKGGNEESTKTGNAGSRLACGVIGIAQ

For the substance “Mouse-anti-SOD1 antibody, clone O98B10 (pan-SOD1; BioLegend #850702)”, the percent SOD1 remaining in flow-through compared to input in assay [1] stood at 23%. For the same substance, in assay [2], the 50% ThT (RFU), SOD1 RT-QuIC after immunodepletion was 27300 RFU and the Lag phase (hours), SOD1 RT-QuIC after immunodepletion was found to be 62.7 h.
“Anti-human SOD1 antibody C4F6 (misfolded SOD1; MediMabs #MM-0070-2-P)”: the percent SOD1 remaining in flow-through compared to input in assay [1] amounted to 21%. In assay [2], this substance yielded a 50% ThT (RFU), SOD1 RT-QuIC after immunodepletion of 21900 RFU and a Lag phase (hours), SOD1 RT-QuIC after immunodepletion of 62.4 h.
For “Isotype control antibody mIgG2a (ThermoFisher #MA110418)” the same measures were 28%, 27600 RFU and 57.6 h.
For “Isotype control antibody mIgG2b (ThermoFisher #MA110427)” the same measures were 75%, 32100 RFU and 70.2 h.

These data come from patent US20260258472A1.
